This is an account of results in paper PMC10329691, “The structural pathology for hypophosphatasia caused by malfunctional tissue non-specific alkaline phosphatase” (Nature Communications, 2023).

Data set [1] deals with T1, human tissue non-specific alkaline phosphatase, amino acids 18-500 (hTNAP^18–500) (human, UniProt P05186, N-glycosylation (asparagine residues, seen in the crystal structure)).
T1 construct: human tissue non-specific alkaline phosphatase (ALPL gene), amino acids 18-500, the mature form with the GPI-anchor amidated residue Ser 501 removed; HA signal peptide at the N-terminus for secretion; TEV protease site before the Flag and His tags, no cleavage described; Dimer dominates in solution, with higher oligomers; octamer in the crystals; The same range was also made in Expi293F from …
The data set is described as follows: cryo-EM structure; hTNAP 18-500-scFv complex, 300 kV Titan Krios, C2 symmetry, 2.96 Å. Conditions: both partners purified.

Data set [2] deals with the molecule itself. Kind of data set: SEC; Superdex 200 Increase 10/300 GL, 20 mM HEPES pH 7.5, 150 mM NaCl; purified TNAP alone.
Data set [3] concerns the molecule itself. The data set is described as follows: SEC-MALS; static light scattering, WTC-030S5 column, 150 mM NaCl, 20 mM HEPES pH 7.5, 0.5 mL/min.
Data set [4] deals with the molecule itself. The data set is described as follows: crystal structure; crystals of hTNAP 18-500 grown at acidic pH (PEG3350, sodium acetate pH 5.0; about 2.9 Å) and at basic pH (PEG4000, Tris pH 8.0, MgCl2; about 3.2 Å).

Positions count from the first letter of the chain named. Names and notes keep the numbering of the source.

B1: scFv of the TNAP agonist antibody JTALP001 (scFv, V domains shown)
VH: QVQLVQSGAEVKKPGASVKVSCKASGYTFTSYGISWVRQAPGQGLEWMGWISAYNGNTNYAQKLQGRVTMTTDTSTSTAYMELRSLRSDDTAVYYCARDKGWNSEGSLEYWGQGTLVTVSS
VL: DIVMTQSPSSVSASVGDRVTITCRASQGISNWLGWYQQKPGKAPKLLIYGASSLQSGVPSRFSGSGSGTDFTLTISSLQPEDFATYFCQQAYSLPLTFGGGTKLEIK
notes: scFv selected from a human scFv phage library against hTNAP 18-500; The Fc fragment of JTALP001 was replaced by a His-tag; also called scFv fragment; scFv antibody; source: Expi293F, purified (Nickel-chelating resin)
In the case of B1, the “stoichiometry N” value in data set [1] was determined as 1 scFv per TNAP protomer.

B2: TNAP^T167M (active site mutant of hTNAP 18-500) (enzyme, human, UniProt P05186 18-500, looked up)
chain: LVPEKEKDPKYWRDQAQETLKYALELQKLNTNVAKNVIMFLGDGMGVSTVTAARILKGQLHHNPGEETRLEMDKFPFVALSKTYNTNAQVPDSAGTATAYLCGVKANEGTVGVSAATERSRCNTTQGNEVTSILRWAKDAGKSVGIVTTMRVNHATPSAAYAHSADRDWYSDNEMPPEALSQGCKDIAYQLMHNIRDIDVIMGGGRKYMYPKNKTDVEYESDEKARGTRLDGLDLVDTWKSFKPRYKHSHFIWNRTELLTLDPHNVDYLLGLFEPGDMQYELNRNNVTDPSLSEMVVVAIQILRKNPKGFFLLVEGGRIDHGHHEGKAKQALHEAVEMDRAIGQAGSLTSSEDTLTVVTADHSHVFTFGGYTPRGNSIFGLAPMLSDTDKKPFTAILYGNGPGYKVVGGERENVSMVDYAHNNYQAQSAVPLRHETHGGEDVAVFSKGPMAHLLHGVHEQNYVPHVMAYAACIGANLGHCAPA
notes: human tissue non-specific alkaline phosphatase, amino acids 18-500, with the hypophosphatasia mutation T167M; HA signal peptide at the N-terminus; PreScission site before the tags; also called active site mutant TNAP^T167M; source: Expi293F, transfected, purified from the supernatant (Nickel-chelating resin, SEC)
As for B2, the “stoichiometry N” value in data set [2] was 2.

B3: TNAP^R450C (dimeric interface mutant of hTNAP 18-500) (enzyme, human, UniProt P05186 18-500, looked up)
chain: B2 chain with M150T, R433C
notes: human tissue non-specific alkaline phosphatase, amino acids 18-500, with the hypophosphatasia mutation R450C; HA signal peptide at the N-terminus; PreScission site before the tags; also called dimeric interface mutant TNAP^R450C; source: Expi293F, transfected, purified from the supernatant (Nickel-chelating resin, SEC)
Regarding B3, the “stoichiometry N” value in data set [2] was 2.

B4: human tissue non-specific alkaline phosphatase, amino acids 18-500 (hTNAP^18–500) (enzyme, UniProt P05186 18-500, looked up)
chain: B2 chain with M150T
modifications: N-glycosylation (asparagine residues, seen in the crystal structure)
notes: human tissue non-specific alkaline phosphatase (ALPL gene), amino acids 18-500, the mature form with the GPI-anchor amidated residue Ser 501 removed; HA signal peptide at the N-terminus for secretion; TEV protease site before the Flag and His tags, no cleavage described; Dimer dominates in solution, with higher oligomers; octamer in the crystals; The same range was also made in Expi293F from …
For B4, the figures for the “stoichiometry N” value in data set [3] and in data set [4] were 2 and 8, respectively.
